In IntAct's records for PubMed 9422760:

B1: Proline-serine-threonine phosphatase-interacting protein 1 (Homo sapiens), O43586 (parent)
chain: MMPQLQFKDAFWCRDFTAHTGYEVLLQRLLDGRKMCKDMEELLRQRAQAEERYGKELVQIARKAGGQTEINSLRASFDSLKQQMENVGSSHIQLALTLREELRSLEEFRERQKEQRKKYEAVMDRVQKSKLSLYKKAMESKKTYEQKCRDADDAEQAFERISANGHQKQVEKSQNKARQCKDSATEAERVYRQSIAQLEKVRAEWEQEHRTTCEAFQLQEFDRLTILRNALWVHSNQLSMQCVKDDELYEEVRLTLEGCSIDADIDSFIQAKSTGTEPPAPVPYQNYYDREVTPLTSSPGIQPSCGMIKRFSGLLHGSPKTTSLAASAASTETLTPTPERNEGVYTAIAVQEIQGNPASPAQEYRALYDYTAQNPDELDLSAGDILEVILEGEDGWWTVERNGQRGFVPGSYLEKL
partner: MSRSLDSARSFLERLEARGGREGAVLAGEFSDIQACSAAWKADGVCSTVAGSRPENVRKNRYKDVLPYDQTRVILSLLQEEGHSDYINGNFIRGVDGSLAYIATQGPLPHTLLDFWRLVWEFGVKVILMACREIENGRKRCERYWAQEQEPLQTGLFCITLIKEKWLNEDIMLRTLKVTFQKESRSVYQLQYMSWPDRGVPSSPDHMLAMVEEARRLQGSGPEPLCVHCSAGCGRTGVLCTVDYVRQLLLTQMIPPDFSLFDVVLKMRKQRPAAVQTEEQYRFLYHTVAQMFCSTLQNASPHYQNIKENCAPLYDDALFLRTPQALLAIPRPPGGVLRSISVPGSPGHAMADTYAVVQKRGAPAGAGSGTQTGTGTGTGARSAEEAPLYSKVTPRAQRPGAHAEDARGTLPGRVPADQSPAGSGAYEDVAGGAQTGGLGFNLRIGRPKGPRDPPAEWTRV
B2: Tyrosine-protein phosphatase non-receptor type 18 (Homo sapiens), Q99952 (parent)
chain: B1 partner

Variants of: B1
Settings: with ptn18_human PTPN18, Q99952

effect of a mutation on the interaction | Variant
disrupting interaction | W232A

Variants of: B2
Settings: with ppip1_human PSTPIP1, O43586

effect of a mutation on the interaction | Variant
increasing interaction | MSRSLDSARSFLERLEARGGREGAVLAGEFSDIQACSAAWKADGVCSTVAGSRPENVRKNRYKDVLPYDQTRVILSLLQEEGHSDYINGNFIRGVDGSLAYIATQGPLPHTLLDFWRLVWEFGVKVILMACREIENGRKRCERYWAQEQEPLQTGLFCITLIKEKWLNEDIMLRTLKVTFQKESRSVYQLQYMSWPDRGVPSSPDHMLAMVEEARRLQGSGPEPLCVHSSAGCGRTGVLCTVDYVRQLLLTQMIPPDFSLFDVVLKMRKQRPAAVQTEEQYRFLYHTVAQMFCSTLQNASPHYQNIKENCAPLYDDALFLRTPQALLAIPRPPGGVLRSISVPGSPGHAMADTYAVVQKRGAPAGAGSGTQTGTGTGTGARSAEEAPLYSKVTPRAQRPGAHAEDARGTLPGRVPADQSPAGSGAYEDVAGGAQTGGLGFNLRIGRPKGPRDPPAEWTRV [C229S]

Variants of: B2
Settings: with ppip1_human PSTPIP1, O43586
Remark: another data set of the same source

effect of a mutation on the interaction | Variant
disrupting interaction | MSRSLDSARSFLERLEARGGREGAVLAGEFSDIQACSAAWKADGVCSTVAGSRPENVRKNRYKDVLPYDQTRVILSLLQEEGHSDYINGNFIRGVDGSLAYIATQGPLPHTLLDFWRLVWEFGVKVILMACREIENGRKRCERYWAQEQEPLQTGLFCITLIKEKWLNEDIMLRTLKVTFQKESRSVYQLQYMSWPDRGVPSSPDHMLAMVEEARRLQGSGPEPLCVHCSAGCGRTGVLCTVDYVRQLLLTQMIPPDFSLFDVVLKMRKQRPAAVQTEEQYRFLYHTVAQMFCSTLQNASPHYQNIKENCAPLYDDALFLRTPQALLAIPRPPGGVLRSISVPGSPGHAMADTYAVVQKRGAPAGAGSGTQTGTGTGTGARSAEEAPLYSKVTPRAQRPGAHAEDARGTLPGRVPADQSPAGSGAYEDVAGGAQTGGLGFNLRIGRAKGPRDPPAEWTRV [P447A]
